Results on one molecule are retold here after PMC11868986, “Identification of Schizophrenia‐Risk Regulatory Variant rs1399178 in the Non‐coding Region With Its Impact on NRF1 Binding”.

The data set has as its target T1, NRF1 DD-DBD (Homo sapiens, UniProt Q16656 49-288).
T1 sequence: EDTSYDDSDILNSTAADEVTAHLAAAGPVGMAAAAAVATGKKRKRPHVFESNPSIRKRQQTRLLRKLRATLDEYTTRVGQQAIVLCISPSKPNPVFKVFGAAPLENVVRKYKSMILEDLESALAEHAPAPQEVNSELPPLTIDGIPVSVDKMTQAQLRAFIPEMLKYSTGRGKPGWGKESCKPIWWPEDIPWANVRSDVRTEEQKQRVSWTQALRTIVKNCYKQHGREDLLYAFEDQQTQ
The data set can be described thus: ITC; two-site fit; DNA 500 uM into 50 uM protein; Kd only in Fig 4B; ITC: 50 mM Tris pH 8.0, 100 mM NaCl, 1 mM EDTA, 1 mM DTT, 25 C; EMSA: Thermo 20148 kit, SH-SY5Y nuclear extract. The note with it: protein: recombinant; cleaved with HRV 3C when needed; chain copies: 2.

B1: RS(WT) / RS(G) (dsDNA)
DNA 1: GGCGCAGCCGCAGC
DNA 2: GCTGCGGCTGCGCC
Turning to B1, the binding result is recorded as “binds”.
